Measurements reported in article PMC3116947.
Where a chain is given by its changes, count along the chain named. Several values for one entry are separate records, joined by “and”; a condition that tells them apart may be missing. Equal entries are not always repeated. One block for each binder: values may come before it.

Columns and labels:
[1] = target: Gab1 G1 peptide (Homo sapiens); test: ITC
[2] = target: Gab1 G2 peptide (Homo sapiens); test: ITC

Kd [1]: 171 µM
B1: Grb2 cSH3, P62993 (protein)
chain: QQPTYVQALFDFDPQEDGELGFRRGDFIHVMANSDPNWWKGACHGQTGMFPRNYVTPVNR

Kd [1]: 444 µM
Kd [2]: 158 µM
B2: Grb2 cSH3, P62993 (protein)
chain: B1 chain with E16A, A32D

Kd [1]: 200 µM and 152 µM and 50 µM
Kd [2]: 42 µM
B3: Grb2 cSH3, P62993 (protein)
chain: B1 chain with A32D
